This passage reports EC50 results from patent publication US20220162310A1.

What is called EC50 is the concentration at which the effect is half-maximal.

The test has as its target human TIGIT-Fc antigen (human) (UniProt Q495A1). Briefly: ELISA on plate-coated human TIGIT-Fc (3 ug/ml), scFv from 80 nM in 1/3 steps, anti-His-HRP, OD450; value is C of the printed 4-P fit; the sheet prints no unit, nM from paragraph 123. (An ELISA detects its analyte on a solid surface through an enzyme-linked reagent.)

Sequence of human TIGIT-Fc antigen (human) (Q495A1 22-141 T103A limits assumed): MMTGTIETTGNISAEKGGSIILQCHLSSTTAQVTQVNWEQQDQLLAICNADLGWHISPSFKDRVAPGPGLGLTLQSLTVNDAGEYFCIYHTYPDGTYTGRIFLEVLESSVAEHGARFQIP

B1: 1F10 (scFv-type anti-TIGIT antibody) (scFv, part only; not given: linker, domain order, His tag, V domains shown, not shown: another chain or arm of the molecule; small tags and cut ends)
VH: EVQLVESGGGLVKPGGSLRISCAASGFTFSNYNMIWVRQAPGKGLEWVSSISSSASYIYYADSVKGRFTISRDNAKNSLYLQMNSLRAEDTAVYYCARDEGSRDSWNNGPYYYSGMDVWGQGTTVTVSS
VL: AIQMTQSPSSLSASVGDRVTITCRASQSISRYLNWYQHKPGKAPKLLIYGASSLQSGVPSRFRGSGSGTDFTLTISSLQPEDFATYYCQQSYTTPGAFTFGGGTKVEIK
B1 showed an EC50 of 0.526 nM. This lies in the sub-nanomolar range.
